Experimental findings from the supplement of paper PMC9112550, “Optimization of the antimicrobial peptide Bac7 by deep mutational scanning” (BMC Biology, 2022) are described below.
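Note: peptides expressed intracellularly from a pBAD plasmid library in pooled LB shake-flask culture, induced with 0.3% L-arabinose, DNA abundance read by NGS, three biological replicates, DESeq2 with apeglm shrinkage.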

For this data set, the system named is Escherichia coli TOP10. Briefly: shrunken log2 fold change of peptide-encoding DNA abundance (4.5 h post-induction vs induction); higher = less antimicrobial activity (less host growth inhibition). The conditions noted are these: time post-induction: 4.5 h; library: site-saturation at positions 5, 18, 19, 20.
For the sequence RRIRRRPPRLPRPRPRPGNRPRP, the “shrunken log2 fold change” value is -0.151.

With RRIRPRPPRLPRPRPRPKRMPRP, the “shrunken log2 fold change” value came to 0.139.

Take RRIRSRPPRLPRPRPRPCWAPRP: the “shrunken log2 fold change” value was 0.143.

As to RRIRGRPPRLPRPRPRPTSDPRP, the “shrunken log2 fold change” value is 0.931.

For RRIRWRPPRLPRPRPRPEDLPRP, the “shrunken log2 fold change” value was -0.0249.

As to RRIRPRPPRLPRPRPRPYLSPRP, the “shrunken log2 fold change” value is -0.509.

Regarding RRIRGRPPRLPRPRPRPCQYPRP, the “shrunken log2 fold change” value was determined as 0.0685.

For RRIRSRPPRLPRPRPRPVNIPRP, the “shrunken log2 fold change” value is -0.261.

With RRIRSRPPRLPRPRPRPGMCPRP, the “shrunken log2 fold change” value stood at 0.0439.

With RRIRMRPPRLPRPRPRPMNMPRP, the “shrunken log2 fold change” value was -0.344.

For the sequence RRIRYRPPRLPRPRPRPTYRPRP, the “shrunken log2 fold change” value was -0.27.

For the sequence RRIRHRPPRLPRPRPRPERDPRP, the “shrunken log2 fold change” value was 0.155.

Regarding RRIRKRPPRLPRPRPRPNMAPRP, the “shrunken log2 fold change” value stood at 0.00469.

As for RRIRYRPPRLPRPRPRPTSNPRP, the “shrunken log2 fold change” value is -0.276.

RRIRNRPPRLPRPRPRPCCWPRP: the “shrunken log2 fold change” value was -0.0688.

For the sequence RRIRVRPPRLPRPRPRPPYHPRP, the “shrunken log2 fold change” value was -0.284.

As for RRIRHRPPRLPRPRPRPMYCPRP, the “shrunken log2 fold change” value is -0.125.

In the case of RRIRSRPPRLPRPRPRPMAHPRP, the “shrunken log2 fold change” value is 0.218.

As to RRIRGRPPRLPRPRPRPYWRPRP, the “shrunken log2 fold change” value was -0.104.

RRIRHRPPRLPRPRPRPDINPRP: the “shrunken log2 fold change” value was -0.0579.

For RRIRWRPPRLPRPRPRPVQDPRP, the “shrunken log2 fold change” value was -0.103.

RRIRSRPPRLPRPRPRPSDDPRP: the “shrunken log2 fold change” value was -0.274.

Regarding RRIRQRPPRLPRPRPRPDQHPRP, the “shrunken log2 fold change” value came to 0.00878.

With RRIRKRPPRLPRPRPRPMNFPRP, the “shrunken log2 fold change” value was 0.18.

For RRIRGRPPRLPRPRPRPPRFPRP, the “shrunken log2 fold change” value came to 1.04.

Turning to RRIRIRPPRLPRPRPRPTNHPRP, the “shrunken log2 fold change” value was -0.587.

Take RRIRWRPPRLPRPRPRPDWAPRP: the “shrunken log2 fold change” value is -0.107.

Take RRIRWRPPRLPRPRPRPKNQPRP: the “shrunken log2 fold change” value was determined as 0.123.

RRIRQRPPRLPRPRPRPDDAPRP: the “shrunken log2 fold change” value was -0.0705.

For the sequence RRIRRRPPRLPRPRPRPEGGPRP, the “shrunken log2 fold change” value came out at 0.103.

With RRIRTRPPRLPRPRPRPIKVPRP, the “shrunken log2 fold change” value came out at 0.0474.

With RRIRYRPPRLPRPRPRPSGVPRP, the “shrunken log2 fold change” value is -0.0951.

Turning to RRIRWRPPRLPRPRPRPSQAPRP, the “shrunken log2 fold change” value is -0.126.

Regarding RRIRERPPRLPRPRPRPQPLPRP, the “shrunken log2 fold change” value is -0.202.

RRIRLRPPRLPRPRPRPCWPPRP: the “shrunken log2 fold change” value was 0.0177.

Consider RRIRNRPPRLPRPRPRPRRKPRP, for which the “shrunken log2 fold change” value is 0.0625.

With RRIRRRPPRLPRPRPRPKRTPRP, the “shrunken log2 fold change” value came out at 0.759.

In the case of RRIRKRPPRLPRPRPRPMWVPRP, the “shrunken log2 fold change” value was -0.232.

As to RRIRYRPPRLPRPRPRPGCQPRP, the “shrunken log2 fold change” value is 0.0142.

As for RRIRDRPPRLPRPRPRPQQTPRP, the “shrunken log2 fold change” value is -0.252.

In the case of RRIRFRPPRLPRPRPRPDQQPRP, the “shrunken log2 fold change” value is -0.078.

As to RRIRARPPRLPRPRPRPPDDPRP, the “shrunken log2 fold change” value was found to be 1.2.

For the sequence RRIRVRPPRLPRPRPRPAWWPRP, the “shrunken log2 fold change” value is 0.156.

For the sequence RRIRERPPRLPRPRPRPQFGPRP, the “shrunken log2 fold change” value amounted to 0.222.

As for RRIRWRPPRLPRPRPRPCFQPRP, the “shrunken log2 fold change” value is -0.222.

For the sequence RRIRVRPPRLPRPRPRPSPAPRP, the “shrunken log2 fold change” value turned out to be 0.34.

As for RRIRRRPPRLPRPRPRPMWSPRP, the “shrunken log2 fold change” value came out at 0.311.

Regarding RRIRSRPPRLPRPRPRPVMVPRP, the “shrunken log2 fold change” value is -0.31.

Take RRIRWRPPRLPRPRPRPREMPRP: the “shrunken log2 fold change” value came to 0.262.

As to RRIRIRPPRLPRPRPRPSGEPRP, the “shrunken log2 fold change” value is -0.246.
